Reference: the supplement of paper PMC10567573
± gives the standard deviation.

Experiment: protein stability index of a GFP-peptide fusion (GPS, HEK-293T) (PSI 1-6); higher = more stable
[1] = treatment: DMSO, c terminus: a fixed tail appended
[2] = treatment: MLN4924 1 uM, 8 h, c terminus: a fixed tail appended
[3] = treatment: DMSO, c terminus: native
[4] = treatment: MLN4924 1 uM, 8 h, c terminus: native
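Further: 24-mer peptide tiles fused after GFP, lentivirally expressed, FACS-sorted into six equal bins by GFP/DsRed ratio, decoded by Illumina sequencing, PSI is the read-weighted mean bin number.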

Sequence	protein stability index [1]	protein stability index [2]	protein stability index [3]	protein stability index [4]
LPDSPLRFDGLPAVLGFPGFSSGR [TRIM15]	2.87 ± 0.39	3.18 ± 0.41	–	–
HCMAPPLLHLDLKPANILLDAHYH [RIPK4]	2.27 ± 0.23	2.38 ± 0.22	–	–
AYISLVEEEDQHMKLSLGGSEMGL [KLHL13]	2.98 ± 0.38	3.06 ± 0.52	–	–
QSLLGYTPEELHAMLDVKPDADE [ETS1]	–	–	5.2 ± 0.36	5.18 ± 0.32
LAGLSVGRSSLTACSLPLCACLLG [PXN]	2.33 ± 0.39	2.33 ± 0.22	–	–
LWCANILGYAVSTFAMVKGYFFPT [DHCR7]	4.05 ± 0.23	3.83 ± 0.12	–	–
KPKPPPNSEGEQGPNGSQNSSYSQ [CCNC]	5.43 ± 0.14	5.55 ± 0.18	–	–
YDPRFNSWIQLPPMQERRASFYAC [KLHL14]	2.14 ± 0.27	2.22 ± 0.17	–	–
TYRSLLESEDCKLPCNPCATTNAS [KRT34]	3.9 ± 0.25	4.09 ± 0.2	–	–
ALTNIQNCMAEKRETVLIETQLKA [C8orf76]	3.19 ± 0.34	3.09 ± 0.47	–	–
GVFVGVISFGQLSDRFGRKKVYLT [SLC22A15]	2.82 ± 0.43	2.7 ± 0.39	–	–
RPSFNRTPIPWLSSGEPVDYNVDI [MYOZ1]	3.57 ± 0.5	3.66 ± 0.39	–	–
NQAPSGPVASSGEFFGSASQPAVE [CLINT1]	5.16 ± 0.24	5.24 ± 0.43	–	–
PLGAGNLGPELIKESNANPIFMRK [DPCD]	4.34 ± 0.27	4.54 ± 0.23	–	–
KTMPKSVVGLHAASKDPREVREAR [EHMT1]	4.78 ± 0.09	4.86 ± 0.26	–	–
SKYCYGPQGSRSPYIPPHAALCLE [FKBP8]	2.46 ± 0.54	2.74 ± 0.3	–	–
APAASEGAAAPATPTPVAAALDAC [SNAP91]	5.32 ± 0.23	5.18 ± 0.31	–	–
KSSIIPFRALKRPLQFLGLFENSL [ZER1]	1.9 ± 0.5	2.31 ± 0.45	–	–
RIRSYLREVSSYPSTVGAEAQEEF [DFFB]	3.33 ± 0.16	3.58 ± 0.29	–	–
WKKQQKCDECGKIFSQSSALILHQ [ZNF396]	2.54 ± 0.25	2.91 ± 0.49	–	–
RLNAYRGYCSNQLAAKALLDQKKQ [NET1]	3.25 ± 0.25	3.25 ± 0.26	–	–
PPVTDLGELRRRPGDMKTKMELLI [CPOX]	3.2 ± 0.36	3.03 ± 0.3	–	–
SKYADLSDAANRNHEALRQAKQEM [PRPH]	4.77 ± 0.064	4.89 ± 0.14	–	–

Sequence	protein stability index [1]	protein stability index [2]	protein stability index [3]	protein stability index [4]
SQDERLDVLLTLKHTVKEHECKLT [IQUB]	3.41 ± 0.3	3.41 ± 0.16	–	–
TAKDNGEAEDQEEKEDAEKENIEK [SRPK2]	5.58 ± 0.12	5.67 ± 0.25	–	–
LWLRPEVHTKEQILELLVLEQFLA [ZNF396]	2.54 ± 0.5	2.73 ± 0.49	–	–
IGDFGISKILSSKSKAYTVVGTPC [NEK8]	2.35 ± 0.12	2.47 ± 0.34	–	–
GVAVGDWVLSIDGENAGSLTHIEA [PDLIM7]	3.03 ± 0.5	2.96 ± 0.36	–	–
YTFTDTFTEKLWPLFYPGIRAGRK [TRIM39]	2.69 ± 0.84	2.46 ± 0.5	–	–
VCRTEGTPHMLLDLSDLLQVDSLR [BRF1]	2.31 ± 0.23	2.29 ± 0.3	–	–
TPLLNGSSQDRMFETMAIEIEQLL [GOSR1]	3.06 ± 0.27	3.28 ± 0.23	–	–
TCICYLCMFQEHKNHSTVTVEEAK [TRIM29]	2.24 ± 0.43	2.67 ± 0.51	–	–
SITEMFGEFRTGKTQICHTLAVTC [RAD51]	2.59 ± 0.33	2.05 ± 0.48	–	–
FIEIELDRQELTYQELLRVCCCEL [ANKRD40]	2.67 ± 0.61	2.67 ± 0.66	–	–
DIVDRGSTNLGVNQAGFTLHSAIY [ADD1]	2.36 ± 0.16	2.49 ± 0.45	–	–
ADVNAQSSTGNTALTYACAGGYVD [ANKRD17]	4.21 ± 0.39	4.49 ± 0.16	–	–
CAACKTPIRNRAFYMEEGVPYCER [PDLIM7]	2.93 ± 0.3	3.38 ± 0.18	–	–
LKRKGKTDSPWIKPARKRRRRSRK [EHMT1]	5.1 ± 0.17	5.03 ± 0.23	–	–
RQGLKYCLPLTFCIHTGLSQYIAV [FBXO3]	3.08 ± 0.45	2.87 ± 0.52	–	–
EIIEGNTKSHIMLVQRQMSVIEED [NECAB1]	3.56 ± 0.35	3.73 ± 0.26	–	–
GFSSIPDAFWWAVVTMTTVGYGDM [KCNA3]	3.06 ± 0.47	3.25 ± 0.27	–	–
FKGNKYWAVQGQNVLHGYPKDIYS [MMP1]	2.3 ± 0.21	2.46 ± 0.2	–	–
PNILFYASTVLKSVGFQSNEAASL [SLC2A12]	2.25 ± 0.33	2.38 ± 0.15	–	–
NGHDCWSLISLSNNTGKNLELKFV [TENT5D]	2.51 ± 0.49	2.61 ± 1	–	–
NLASYDVCSILLGTSTLLVWVGVI [MCOLN1]	3.08 ± 0.6	3.19 ± 0.7	–	–
SRLNLTGLGYFSCHSHTVVQDYSY [CCDC3]	2.12 ± 0.37	2.18 ± 0.11	–	–

Sequence	protein stability index [1]	protein stability index [2]	protein stability index [3]	protein stability index [4]
MDDERYFNEMSAQGLRPRTVSSPI [CCDC6]	4.28 ± 0.29	4.16 ± 0.14	–	–
EQIGHILVSWLPRLNAYRGYCSNQ [NET1]	2.67 ± 0.51	2.65 ± 0.18	–	–
EDPYMMGRIACANVLSDLYAMGIT [SEPHS2]	2.39 ± 0.19	2.36 ± 0.18	–	–
GQLEFRALLFIPRRAPFDLFENKK [HSP90AB1]	2.22 ± 0.22	–	–	–
GGGGGGGGTSSNNSEEEEDDDDEE [ANKRD17]	5.68 ± 0.21	5.55 ± 0.34	–	–
DDDDDDAQILPSRVQGGCYRFDSS [DRICH1]	4.65 ± 0.095	4.88 ± 0.15	–	–
IAAATSVLKTRFSYAFPKEFPYRM [CCNC]	2.08 ± 0.12	2.58 ± 0.51	–	–
YRYCCKLNKKLKSYSLSRKKIVHY [CDC14A]	2.27 ± 0.38	2.25 ± 0.53	–	–
AGLNKDKETEERTDGERVAEVAPE [SDE2]	5.46 ± 0.33	5.63 ± 0.16	–	–
ALHCPTGTEYTCKVYPVQEALAVL [TRIB3]	2.27 ± 0.39	2.28 ± 0.32	–	–
YSYLVLLFPVFLATDYLRYKPVVL [SLC19A2]	3.56 ± 0.34	3.01 ± 0.51	–	–
LFLKEGACDELFSYLIEKVKRKKN [PRAME]	2.18 ± 0.5	2.21 ± 0.27	–	–
SCHGYTLPGACNIPANVSNCNWFC [KRT33B]	2.53 ± 0.52	2.42 ± 0.5	–	–
AREYYSEADASHCIQQILEAVLHC [CAMK2A]	2.48 ± 0.26	2.55 ± 0.24	–	–
LSTADGKAFADPEVLRRLTSSVSC [ANKRD17]	3.55 ± 0.17	3.69 ± 0.29	–	–
HSSDEDEDEDDEEDFEDDDEWED [WASL]	–	–	3.19 ± 0.17	3.33 ± 0.47
LSSEVLVGDLMSPFDQSGLGAEES [ATF4]	5 ± 0.48	4.84 ± 0.18	–	–
NEVIADINCKGRSKSNLGWTPLHL [OSBPL1A]	2.48 ± 0.38	2.76 ± 0.28	–	–
LQEVPTGLDSISHDSANCELPLLT [ETS2]	4.71 ± 0.12	4.92 ± 0.42	–	–
STARRSRAASSQRAEEEDDDIKQL [CHMP4C]	5.59 ± 0.073	5.46 ± 0.25	–	–
KKENKMTWAPKNKGGEERKAEGGE [IRX6]	5.39 ± 0.2	5.51 ± 0.27	–	–
GQMSTPETPQPSPPGGSGSEPYKL [HNF4A]	5.16 ± 0.21	5.17 ± 0.19	–	–
LSIYVGCDKYPHESQLPEEWENNR [CPXM2]	2.98 ± 0.13	3.25 ± 0.4	–	–

Sequence	protein stability index [1]	protein stability index [2]	protein stability index [3]	protein stability index [4]
LAVLGADERIFSLTRRLAHGEELR [HAGHL]	2.82 ± 0.23	2.81 ± 0.38	–	–
SHQNLRVDDLSVEWDAMGGKVQDI [FSD1]	4.49 ± 0.19	4.47 ± 0.28	–	–
LISCSEDGSVRIWELREKQQLAAE [WDR41]	2.89 ± 0.28	2.97 ± 0.2	–	–
QIKCIELKSELGRKWHKASNYIFV [P2RY14]	2.72 ± 0.93	2.67 ± 0.47	–	–
TPKAAWIREEGRCSSSDDDTDVDM [PBXIP1]	5.4 ± 0.32	5.19 ± 0.38	–	–
PVENIPEIILYWKHSTIFDVGENL [SLC25A25]	2.37 ± 0.41	2.02 ± 0.44	–	–
DSARADDARQLFVLAGAAEEGFMT [GNAI1]	4.21 ± 0.22	4.43 ± 0.077	–	–
DPDGLVATYISEVHEHDGHLYLGS [APMAP]	3.87 ± 0.18	3.94 ± 0.39	–	–
SSHHSHSYIGLPYADHNYGARPPP [KMT2E]	3.46 ± 0.16	3.7 ± 0.27	–	–
ILVTKVEEPSKYGVVVCEADTGRI [GMPPB]	2.75 ± 0.18	2.91 ± 0.22	–	–
HFWGEKNHGFEVLYHSVKQGPIST [FCHO1]	2.44 ± 0.52	2.48 ± 0.43	–	–
WTMQAYERNFWDPSPQLDTQQEIK [WDR41]	3.16 ± 0.19	3.46 ± 0.47	–	–
LCLNTEDSFVCQCSEGFLINEDLK [MATN2]	3.03 ± 0.28	3.38 ± 0.28	–	–
IEAEGATAPLTELLHSRNEGVATY [CTNNB1]	4.32 ± 0.27	4.31 ± 0.25	–	–
FDVDHGICIMDAENITTVSVIKDH [WDR88]	3.27 ± 0.2	3.25 ± 0.25	–	–
PEYTYGISNIDTTIEGTSDDLTVV [MFF]	4.61 ± 0.15	4.56 ± 0.078	–	–
ELSPPLSPASHVDVDLTIHGRHID [FOXJ1]	4.82 ± 0.18	4.84 ± 0.064	–	–
IYLSTSSSKFYDLFLMDLSEGELG [RHOBTB2]	3.38 ± 0.65	2.9 ± 0.39	–	–
CIPASSSFVYGAVPIGASIYVIGD [GAN]	2.97 ± 0.65	2.48 ± 0.61	–	–
GPLAETTEDFWRMLWEHNSTIVVM [PTPRD]	2.48 ± 0.42	2.4 ± 0.33	–	–
